# PMC6660772, “Structure of KAP1 tripartite motif identifies molecular interfaces required for retroelement silencing” (Proceedings of the National Academy of Sciences of the …, 2019)
# B1: full-length KAP1 (residues 1-835) (natural protein, human, UniProt Q13263 1-835, looked up)
# chain: MAASAAAASAAAASAASGSPGPGEGSAGGEKRSTAPSAAASASASAAASSPAGGGAEALELLEHCGVCRERLRPEREPRLLPCLHSACSACLGPAAPAAANSSGDGGAAGDGTVVDCPVCKQQCFSKDIVENYFMRDSGSKAATDAQDANQCCTSCEDNAPATSYCVECSEPLCETCVEAHQRVKYTKDHTVRSTGPAKSRDGERTVYCNVHKHEPLVLFCESCDTLTCRDCQLNAHKDHQYQFLEDAVRNQRKLLASLVKRLGDKHATLQKSTKEVRSSIRQVSDVQKRVQVDVKMAILQIMKELNKRGRVLVNDAQKVTEGQQERLERQHWTMTKIQKHQEHILRFASWALESDNNTALLLSKKLIYFQLHRALKMIVDPVEPHGEMKFQWDLNAWTKSAEAFGKIVAERPGTNSTGPAPMAPPRAPGPLSKQGSGSSQPMEVQEGYGFGSGDDPYSSAEPHVSGVKRSRSGEGEVSGLMRKVPRVSLERLDLDLTADSQPPVFKVFPGSTTEDYNLIVIERGAAAAATGQPGTAPAGTPGAPPLAGMAIVKEEETEAAIGAPPTATEGPETKPVLMALAEGPGAEGPRLASPSGSTSSGLEVVAPEGTSAPGGGPGTLDDSATICRVCQKPGDLVMCNQCEFCFHLDCHLPALQDVPGEEWSCSLCHVLPDLKEEDGSLSLDGADSTGVVAKLSPANQRKCERVLLALFCHEPCRPLHQLATDSTFSLDQPGGTLDLTLIRARLQEKLSPPYSSPQEFAQDVGRMFKQFNKLTEDKADVQSIIGLQRFFETRMNEAFGDTKFSAVLVEPPPMSLPGAGLSSQELSGGPGDGP
# notes: KAP1 (TRIM28), human, UniProt Q13263, full length, residues 1-835; Purified as T4L-RBCC, that is without removal of the His6 tag; a TEV site (ENLYFQG) lies between tag and protein; also called TRIM28; TIF1β; source: also coexpressed with MBP-KRAB in E. coli and co-purified (StrepTrap, Superose 6 SEC); not shown: His6, N-terminal, kept
# B2: KAP1 RBCC V114A/Q123A/F125A/K127A (RING domain mutant) (domain or fragment, human, UniProt Q13263 50-413, looked up)
# chain: SPAGGGAEALELLEHCGVCRERLRPEREPRLLPCLHSACSACLGPAAPAAANSSGDGGAAGDGTAVDCPVCKQACASADIVENYFMRDSGSKAATDAQDANQCCTSCEDNAPATSYCVECSEPLCETCVEAHQRVKYTKDHTVRSTGPAKSRDGERTVYCNVHKHEPLVLFCESCDTLTCRDCQLNAHKDHQYQFLEDAVRNQRKLLASLVKRLGDKHATLQKSTKEVRSSIRQVSDVQKRVQVDVKMAILQIMKELNKRGRVLVNDAQKVTEGQQERLERQHWTMTKIQKHQEHILRFASWALESDNNTALLLSKKLIYFQLHRALKMIVDPVEPHGEMKFQWDLNAWTKSAEAFGKIVAERP
# notes: KAP1 (TRIM28), human, UniProt Q13263, RBCC residues 50-413 with four mutations in the RING domain; also called RBCC with RING domain mutations; source: E. coli BL21 (DE3), purified; not shown: His6, N-terminal, cleaved
# B3: KAP1 RBCC N235A/A236D/K238A/D239A/F244A/L245A (B-box 2 mutant) (domain or fragment, human, UniProt Q13263 50-413, looked up)
# chain: SPAGGGAEALELLEHCGVCRERLRPEREPRLLPCLHSACSACLGPAAPAAANSSGDGGAAGDGTVVDCPVCKQQCFSKDIVENYFMRDSGSKAATDAQDANQCCTSCEDNAPATSYCVECSEPLCETCVEAHQRVKYTKDHTVRSTGPAKSRDGERTVYCNVHKHEPLVLFCESCDTLTCRDCQLADHAAHQYQAAEDAVRNQRKLLASLVKRLGDKHATLQKSTKEVRSSIRQVSDVQKRVQVDVKMAILQIMKELNKRGRVLVNDAQKVTEGQQERLERQHWTMTKIQKHQEHILRFASWALESDNNTALLLSKKLIYFQLHRALKMIVDPVEPHGEMKFQWDLNAWTKSAEAFGKIVAERP
# notes: KAP1 (TRIM28), human, UniProt Q13263, RBCC residues 50-413 with six mutations in and next to B-box 2; also called RBCC with the B-box 2 mutations; source: E. coli BL21 (DE3), purified; not shown: His6, N-terminal, cleaved
# B4: KAP1 RBCC (residues 50-413), wild type (domain or fragment, human, UniProt Q13263 50-413, looked up)
# chain: SPAGGGAEALELLEHCGVCRERLRPEREPRLLPCLHSACSACLGPAAPAAANSSGDGGAAGDGTVVDCPVCKQQCFSKDIVENYFMRDSGSKAATDAQDANQCCTSCEDNAPATSYCVECSEPLCETCVEAHQRVKYTKDHTVRSTGPAKSRDGERTVYCNVHKHEPLVLFCESCDTLTCRDCQLNAHKDHQYQFLEDAVRNQRKLLASLVKRLGDKHATLQKSTKEVRSSIRQVSDVQKRVQVDVKMAILQIMKELNKRGRVLVNDAQKVTEGQQERLERQHWTMTKIQKHQEHILRFASWALESDNNTALLLSKKLIYFQLHRALKMIVDPVEPHGEMKFQWDLNAWTKSAEAFGKIVAERP
# notes: KAP1 (TRIM28), human, UniProt Q13263, residues 50-413 (RING, B-box 1, B-box 2, coiled coil); rows of m3 with m3 give the step in the assay's format; also called KAP1 RBCC motif; KAP1 TRIM; not shown: His6, N-terminal, cleaved
# B5: Twin-StrepII-MBP-ZNF93 KRAB (KRAB domain residues 1-71 of ZNF93) (domain or fragment)
# chain: not shown
# notes: ZNF93, UniProt P35789, KRAB domain residues 1-71; The MBP tag was also required for protein solubility; also called MBP-KRAB; ZNF93 MBP-KRAB; source: E. coli BL21 (DE3), purified (StrepTrap, Superdex 200 SEC); also coexpressed with KAP1 in E. coli and co-purified; not shown: Twin-StrepII, N-terminal, kept; MBP, N-terminal, kept
# B6: KAP1 RING-B-box 1 (RB1; residues 50-200) (domain or fragment, human, UniProt Q13263 50-200, looked up)
# chain: SPAGGGAEALELLEHCGVCRERLRPEREPRLLPCLHSACSACLGPAAPAAANSSGDGGAAGDGTVVDCPVCKQQCFSKDIVENYFMRDSGSKAATDAQDANQCCTSCEDNAPATSYCVECSEPLCETCVEAHQRVKYTKDHTVRSTGPAKS
# notes: KAP1 (TRIM28), human, UniProt Q13263, residues 50-200 (RING and B-box 1); also called RING-B-box 1 fragment; RING-Box-1 fragment; not shown: His6, N-terminal, cleaved
# Legend:
# [1] = target: the molecule itself; test: SEC-MALS; full-length KAP1 and ZNF93 MBP-KRAB coexpressed in E. coli and co-purified (StrepTrap, SEC); Superose 6 (10/300), 20 mM Hepes pH 8, 0.5 M NaCl, 0.5 mM TCEP, 293 K; total protein 1.2 g/L
# [2] = target: B5; test: as above; conditions: both partners purified
# [3] = target: the molecule itself; test: SEC-MALS; KAP1 RBCC at low protein concentration (8.7 µM, 0.35 g/L); monomers to dimer; Superdex 200 (10/300), 20 mM Hepes pH 8, 0.5 M NaCl, 0.5 mM TCEP, 293 K
# [4] = target: B4; test: SPR; Biacore T200, CM5 chip, MBP-KRAB immobilized (~600 RU), KAP1 RBCC flowed over (1:2 dilution series from 34 µM WT, 35 µM mutant), 20 mM Hepes pH 8.0, 0.5 M NaCl, 0.5 mM TCEP, 20 °C; biphasic kinetic model; conditions: both partners purified
# [5] = target: the molecule itself; test: SEC-MALS; RING-B-box 1 (WT at 33 to 610 µM; B-box 1 mutant); monomer to dimer; Superdex 75 (10/300), 20 mM Hepes pH 8, 0.2 M NaCl, 0.5 mM TCEP, 293 K
binder,measurement,setting,value
B1,binding result,[1],binds
same,stoichiometry N,[2],2 KAP1 per KRAB
B2,binding result,[3],binds
B3,binding result,[3],binds
B4,stoichiometry N,[3],2
B5,Kd,[4],8 ± 2 nM
same,koff,[4],0.00027 s⁻¹
same,kon,[4],36000 M⁻¹ s⁻¹
B6,stoichiometry N,[5],2
